Patent US20210228853A1, “DRUG DELIVERY METHODS TARGETING THE LYMPHATIC SYSTEM” (Sorrento Therapeutics, Inc., priority 2018, published 2021)

Experiments:
[1] = Etanercept pharmacokinetics in porcine model by route of administration; assay type: in vivo, Yorkshire pig
[2] = tested on: Collagen Induced Arthritic (CIA) Model for Rheumatoid Arthritis (RA); test: Collagen induced arthritic (CIA) model for rheumatoid arthritis, hind limb/joint swelling; assay type: in vivo, rat
Procedure: (§1) Specifically, type II porcine collagen (Chondrex, Inc. catalog #20031), solubilized in 0.05 N of acetic acid in sterile water at a concentration of 2 mg/mL was emulsified with an equal volume of incomplete Freud's adjuvant (Chondrex, Inc. catalog #7002) using homogenization at 35,000 rpm (Omni International homogenizer TH, homogenizer probe #32750); 100 μL emulsion was injected subcutaneously at the base of the tails on both sides for initial administration (day 0, 200 μL of emulsion total), and then again, 7 days later, on the right side only, for booster administration (day 7, 100 μL of emulsion total). Hind limb swelling, usually evident by day 14, was assessed by caliper measurements of the rear ankle cross (side-to-side) and oblique (front-to-back) dimensions. The two measurements for each hind limb were multiplied together for assessment of swelling, and the percent change from baseline was computed. These measurements and lymphatic imaging were performed on days 0, 7, 11, 13, and 18, in the early stages of CIA before the onset of joint destruction. Four groups of animals were studied: (1) untreated (n=20), (2) treated with etanercept given by SC administration (n=20, 1 mg in 100 μL), (3) treated with etanercept given by ID administration (n=20, two administrations of 0.5 mg in 50 μL), and (4) treated with etanercept given via Sofusa™ (n=18, one administration of 1 mg in 100 μL delivered).

[3] = tested on: Collagen Induced Arthritic (CIA) Model for Rheumatoid Arthritis (RA); test: Lymphatic pumping rate by NIRF imaging in CIA rats; assay type: in vivo, rat; details: for lymphatic pumping in the hind limbs vs untreated animals: CIA rat, days 13 and 18 post CIA induction
Procedure: as §1, with “delivered). Rats were anesthetized with isoflurane and shaved before imaging; 10 μL of 625 μM ICG was then injected ID with a 31-gauge needle/syringe (BD #328438, Fisher Scientific) at the base of the tail and on the dorsal side of the paw on both the right and left sides of the rats to perform NIRF imaging of the lymphatics. […] The integration time for fluorescence images was 200 ms; 300-900 images were collected per lateral side per rat for lymph propulsive frequency measurements. […]” for “delivered).”

[4] = Biodistribution of radiolabeled etanercept to axillary and inguinal lymph nodes; assay type: in vivo; details: rat; Sofusa vs intravenous or subcutaneous; 12 and 36 hours; 1 mg
Procedure: In order to determine the amount etanercept delivered to the lymph nodes, a radiolabeled etanercept solution was administrated using the Sofusa™ drug delivery platform (1 mg etanercept in 100 μL), IV (1 mg etanercept in the tail vein in 100 μL), SC (1 mg etanercept in the dorsolateral side at the same site as the Sofusa™ application, 100 μL), and ID (1 mg total etanercept in two 50 μL injections). Animals were harvested at 12 and 36 hrs after administration, and the left/right axillary and inguinal lymph nodes were collected, weighed, and counted for radioactivity using a 2480 Wizard2 automatic gamma counter (PerkinElmer, Waltham, Mass., USA). The time-corrected radioactivity was then used to compute the μg/mL of tissue etanercept concentration from the specific radioactivity of the dosing solution with animals that were euthanized at 12 hrs (n=4, Sofusa™; n=6, IV; n=6, ID; and n=6, SC) and at 36 hrs (n=6, Sofusa™; n=6, IV; n=6, ID; and n=6, SC).
In order to validate the amount of etanercept delivered, the radioactivity was measured in the Sofusa™ device and tubing before and after the 1 hr infusion. Measurement was conducted using the dose calibrator. The amount of etanercept delivered as the difference in the time-corrected radioactivity before and after administration was determined.

[5] = Etanercept pharmacokinetics in rat serum by route of administration (ELISA); assay type: in vivo, Sprague Dawley rats
Procedure: Methods and procedures for some of these experiments have been adapted from Aldrich, et al., Arthritis Res. Ther., (2017), 19:116 (DOI 10.1186/s13075-017-1323-z; Open Access) which is incorporated by reference herein in its entirety for all purposes.
In order to characterize differences in etanercept delivery by the different routes of administration, normal rats were used to determine the PK profiles following a single dose of 1 mg etanercept in 100 μL delivered via Sofusa™ (n=6), conventional IV (in the tail vein, n=6), SC (dorsolateral injection at the same site as the Sofusa™ application, n=4), or ID injections (symmetrical dorsolateral injections 2×50 uL for a total dose of 1 mg etanercept, n=6). Other than the Sofusa™ delivery, all administration was conducted using a 31-gauge needle. At 2, 4, 8, 12, 24, and 36 h after administration, animals were anesthetized under isoflurane, and 200 μL of blood was drawn from the jugular vein. The etanercept concentration in serum was quantified using the Etanercept ELISA Kit (ABIN: 1540251) (Matriks Biotechnology Co., LTD., Ankara, Turkey). Optical density was measured at 450 nm using Thermo Scientific Multiskan EX (Thermo Fisher Scientific, Waltham, Mass., USA).

[6] = Sofusa drug delivery platform vs subcutaneous
[7] = Table 1, IV, 1 mg etanercept single dose
[8] = Table 1, SC, 1 mg etanercept single dose
[9] = Table 2 summary, Sofusa drug delivery platform

Substance: etanercept
- AUC48 and bioavailability, Sofusa vs intravenous [1]: comparable to that for intravenous administration
- AUC48 and bioavailability, Sofusa vs subcutaneous [1]: significantly higher than that for subcutaneous delivery
- serum concentration ([1]; Sofusa at a dose much lower than subcutaneous administration): maintained a serum concentration at a therapeutically effective concentration
- AUC0-48 ([1]; Table 4, IV): 143 hrs-μg/mL
- BA ([1]; Table 4, IV): 100%
- Cmax ([1]; Table 4, IV): 6000 ng/mL
- Tmax ([1]; Table 4, IV): 2 h
- AUC0-48 ([1]; Table 4, SC): 89 hrs-μg/mL
- BA ([1]; Table 4, SC): 62%
- Cmax ([1]; Table 4, SC): 2000 ng/mL
- Tmax ([1]; Table 4, SC): 24 h
- AUC0-48 ([1]; Table 4, Sofusa): 132 hrs-μg/mL
- BA ([1]; Table 4, Sofusa): 93%
- Cmax ([1]; Table 4, Sofusa): 4400 ng/mL
- Tmax ([1]; Table 4, Sofusa): 24 h
- joint swelling over time ([2]; CIA RA rat model, Sofusa administration, 1 mg): decreased joint swelling over time
- increase in swelling with progression of disease (paired group comparisons, ANOVA) ([2]; CIA rat, ID administration): swelling was significantly increased
- increase in swelling with progression of disease (paired group comparisons, ANOVA) ([2]; CIA rat, SC administration): swelling was significantly increased
- increase in swelling with progression of disease (paired group comparisons, ANOVA) ([2]; CIA rat, SOFUSA administration): no statistically significant increase in swelling
- swelling of the hind limbs vs untreated animals ([2]; CIA rat, all treated groups (SC, ID, Sofusa), days 13 and 18): significant reduction in swelling
- hind limb swelling, SOFUSA compared to SC-treated animals ([2]; CIA rat, days 13 and 18): significantly reduced hind limb swelling
- lymphatic pumping rate ([3]; CIA RA rat, Sofusa compared to untreated, ID and SC groups): significantly increased
- lymphatic pumping in the hind limbs vs untreated animals ([3]; SC administration): statistically significant greater lymphatic pumping
- lymphatic pumping in the hind limbs vs untreated animals ([3]; SOFUSA administration): statistically significant greater lymphatic pumping
- active agent in the axillary and inguinal lymph nodes [4]: significantly more of the active agent
- AUC48, Sofusa compared to SC [5, 6]: almost double
- Tmax, Sofusa compared to SC [5, 6]: significantly shorter
- AUC0-48 [5, 7]: 2,800 hrs-μg/mL
- BA [5, 7]: 100%
- Cmax [5, 7]: 120000 ng/mL
- Tmax [5, 7]: 8 h
- AUC0-48 [5, 8]: 302 hrs-μg/mL
- BA [5, 8]: 10%
- Cmax [5, 8]: 15000 ng/mL
- Tmax [5, 8]: 36 h
- AUC0-48 ([5]; Table 1, Sofusa Study 1): 545 hrs-μg/mL
- BA ([5]; Table 1, Sofusa Study 1): 20%
- Cmax ([5]; Table 1, Sofusa Study 1): 25000 ng/mL
- Tmax ([5]; Table 1, Sofusa Study 1): 4 h
- AUC0-48 ([5]; Table 1, Sofusa Study 2): 502 hrs-μg/mL
- BA ([5]; Table 1, Sofusa Study 2): 18%
- Cmax ([5]; Table 1, Sofusa Study 2): 22000 ng/mL
- Tmax ([5]; Table 1, Sofusa Study 2): 2 h
- AUC0-48 ([5]; Table 1, Sofusa Study 3): 538 hrs-μg/mL
- BA ([5]; Table 1, Sofusa Study 3): 19%
- Cmax ([5]; Table 1, Sofusa Study 3): 20000 ng/mL
- Tmax ([5]; Table 1, Sofusa Study 3): 2 h
- AUC0-48 ([5]; Table 2 summary, SC): 492 hrs-μg/mL
- BA ([5]; Table 2 summary, SC): 17%
- Cmax ([5]; Table 2 summary, SC): 15000 ng/mL
- Tmax ([5]; Table 2 summary, SC): 36 h
- AUC0-48 [5, 9]: 800 hrs-μg/mL
- BA [5, 9]: 29%
- Cmax [5, 9]: 19000 ng/mL
- Tmax [5, 9]: 10 h
- AUC0-36 ([5]; Table 3, Intradermal): 696 µg·h/mL
- BA ([5]; Table 3, Intradermal): 25%
- Cmax ([5]; Table 3, Intradermal): 21000 ng/mL
- Tmax ([5]; Table 3, Intradermal): 12 h
- AUC0-36 ([5]; Table 3, Intravenous): 2,815 μg-hour/ml
- BA ([5]; Table 3, Intravenous): 100%
- Cmax ([5]; Table 3, Intravenous): 120000 ng/mL
- Tmax ([5]; Table 3, Intravenous): 2 h
- AUC0-36 ([5]; Table 3, Sofusa): 1010 µg·h/mL
- BA ([5]; Table 3, Sofusa): 36%
- Cmax ([5]; Table 3, Sofusa): 23000 ng/mL
- Tmax ([5]; Table 3, Sofusa): 12 h
- AUC0-36 ([5]; Table 3, Subcutaneous): 302 µg·h/mL
- BA ([5]; Table 3, Subcutaneous): 11%
- Cmax ([5]; Table 3, Subcutaneous): 15000 ng/mL
- Tmax ([5]; Table 3, Subcutaneous): 36 h
